Test results reported in patent US6800467B1, “Polypeptides having aminopeptidase activity and nucleic acids encoding same” (Novozymes Biotech, Inc., priority 1997, dated 2004).

Key:
Format in all cases: biochemical
[1] = Kinetic parameters of aminopeptidase II for p-nitroanilides at pH 7.0 and 25° C.; settings: pH 7.0, 25° C.
Procedure: The purified aminopeptidase II described in Example 11 was used in the following characterization.
Kinetic parameters of the aminopeptidase II were determined for several p-nitroanilides (pNA) including Leu-pNA, Gly-pNA, Ala-pNA, and Pro-pNA (Sigma Chemical Co., St. Louis, Mo., or Bachem, Torrance, Calif.). Stock solutions of 100 mg of each p-nitroanilide per ml of dimethylsulfoxide were diluted with 50 mM potassium phosphate pH 7.0 buffer to concentrations ranging from 0.0064 to 9.56 mM. […] The reaction of the aminopeptidase II with the p-nitroanilide was initiated when a 100 μl aliquot of the enzyme solution in 50 mM potassium phosphate pH 7.0 was added to 100 μl of a substrate solution in a microtiter plate well and monitored at 405 nm and 25° C. using a THERMOmax Microplate Reader (Molecular Devices Corp., Sunnyvale, Calif.).

[2] = tested on: wheat gluten meal tablets; assay: Degree of hydrolysis (DH) assay, gluten; settings: 50° C., 18 hours
Procedure: (§1) The purified aminopeptidase II described in Example 11 was tested in degree of hydrolysis assays using soy, wheat gluten, and casein as substrates according to the following procedure.
(§2) The degree of hydrolysis (DH) assays were performed at 50° C. for 18 hours as a mini-hydrolysis on a 10 ml scale using soy bean meal tablets, wheat gluten meal tablets, and sodium-caseinate at a 2% concentration adjusted to pH 7, if necessary, with no pH adjustment during hydrolysis. The hydrolysates were inactivated at 85° C. for 3 minutes in a waterbath. The enzymes used were FLAVOURZYME™ and aminopeptidase II. The enzymes were dosed as follows. […] Upon hydrolysis, p-nitroanilide is liberated turning the solution yellow which is monitored 405 nm.
(§3) The degree of hydrolysis (DH), as defined as described by Adler-Nissen (1986, Enzymic Hydrolysis of Food Proteins, Elsevier Applied Science Publishers), was determined by reaction of the supernatant with OPA (ortho-phtaldialdehyde, Sigma Chemical Co., St. Louis, Mo.) according to the following procedure The hydrolysate was diluted 100-fold into distilled water. […] The solution was then shaken well and after 2 minutes exactly, the absorbance at 340 nm was measured and compared to the absorbance of a 0.95 mM L-serine (distilled water) solution after subtraction of the blank value (water reacted with OPA reagent). […]

gelatin = assay: Degree of hydrolysis (DH) assay, gelatin
[3] = pH optimum using Ala-pNA as substrate in universal buffer
Procedure: The purified aninopeptidase II described in Example 15 was used in the following characterizations.
The Ala-pNA substrate was prepared by dissolving 100 mg of Ala-pNA in 1 ml of DMSO and adding 20 μl of the Ala-pNA/DMSO solution to 980 μl of the universal buffer at the various pH values. The assay was initiated by adding a 15 μl aliquot of the aminopeptidase II in 50 mM sodium phosphate pH 7.5 buffer to 200 μl of 2 mg/ml Ala-pNA at the various pH values at ambient temperature. The change in absorbance at 405 nm was monitored for 5 minutes. Autohydrolysis of the substrate as a control was determined by adding 15 μl of 50 mM sodium phosphate pH 7.5 buffer to 200 μl of 2 mg/ml Ala-pNA at the various pH values.

sodium-caseinate = assay: Degree of hydrolysis (DH) assay, casein; settings: vs 3 LAPUs FLAVOURZYME alone
Procedure: as §1, §2, §3

[4] = substrate Ala-pNA, enzyme of Example 11
[5] = substrate Gly-pNA, enzyme of Example 11
[6] = substrate Pro-pNA, enzyme of Example 11
[7] = 2 LAPUs aminopeptidase II added to 3 LAPUs FLAVOURZYME

B1: aminopeptidase II: Recombinant Aspergillus oryzae 1568 (ATCC 20386) aminopeptidase II, 496 amino acids (SEQ ID NO:2), produced in Aspergillus oryzae or Fusarium (protein)
chain: MRSLLWASLLSGVLAGRALVSPDEFPEDIQLEDLLEGSQQLEDFAYAYPERNRVFGGKAHDDTVNYLYEELKKTGYYDVYKQPQVHLWSNADQTLKVGDEEIEAKTMTYSPSVEVTADVAVVKNLGCSEADYPSDVEGKVALIKRGECPFGDKSVLAAKAKAAASIVYNNVAGSMAGTLGAAQSDKGPYSAIVGISLEDGQKLIKLAEAGSVSVDLWVDSKQENRTTYNVVAQTKGGDPNNVVALGGHTDSVEAGPGINDDGSGIISNLVIAKALTQYSVKNAVRFLFWTAEEFGLLGSNYYVSHLNATELNKIRLYLNFDMIASPNYALMIYDGDGSAFNQSGPAGSAQIEKLFEDYYDSIDLPHIPTQFDGRSDYEAFILNGIPSGGLFTGAEGIMSEENASRWGGQAGVAYDANYHAAGDNMTNLNHEAFLINSKATAFAVATYANDLSSIPKRNTTSSLHRRARTMRPFGKRAPKTHAHVSGSGCWHSQVEA
**Q.** For B1, which Km [1, 4] is on record?
**A.** 11 mM

**Q.** And the Vmax [1, 4]?
**A.** 1200 relative units

**Q.** And the Km [1, 5]?
**A.** 0.3 mM

**Q.** And the Vmax [1, 5]?
**A.** 1670 relative units

**Q.** What about the Vmax ([1]; substrate Leu-pNA, enzyme of Example 11) of the same molecule?
**A.** 6400 relative units

**Q.** And the Km ([1]; substrate Leu-pNA, enzyme of Example 11 (produced in Aspergillus))?
**A.** 7 mM

**Q.** What about the Km [1, 6] of the same molecule?
**A.** 2 mM

**Q.** What about the Vmax [1, 6] of the same molecule?
**A.** 120 relative units

**Q.** And the “increase of absolute DH” value [2, 7]?
**A.** 6%

**Q.** What about the “increase of absolute DH” value ([2]; 5 LAPUs aminopeptidase II added to 3 LAPUs FLAVOURZYME) of the same molecule?
**A.** 9%

**Q.** And the “increase of absolute DH” value (gelatin; 2 LAPUs added to 3 LAPUs FLAVOURZYME)?
**A.** 4.9%

**Q.** What about the “increase of absolute DH” value (gelatin; 5 LAPUs added to 3 LAPUs FLAVOURZYME) of the same molecule?
**A.** 5.3%

**Q.** What about the “pH of optimal activity” value ([3]; Ala-pNA as substrate, ambient temperature, enzyme of Example 15 (produced by Fusarium)) of the same molecule?
**A.** 9.5-10

**Q.** What about the “Avg. Activity” value ([3]; pH 4.42, Ala-pNA, ambient temperature) of the same molecule?
**A.** 0 mOD/min

**Q.** And the “Relative Activity” value ([3]; pH 4.42, Ala-pNA, relative to pH 9.68)?
**A.** 0

**Q.** What about the “Avg. Activity” value ([3]; pH 4.91, Ala-pNA, ambient temperature) of the same molecule?
**A.** 2 mOD/min

**Q.** What about the “Relative Activity” value ([3]; pH 4.91, Ala-pNA, relative to pH 9.68) of the same molecule?
**A.** 0.006

**Q.** And the “Avg. Activity” value ([3]; pH 5.41, Ala-pNA, ambient temperature)?
**A.** 7.8 mOD/min

**Q.** What about the “Relative Activity” value ([3]; pH 5.41, Ala-pNA, relative to pH 9.68) of the same molecule?
**A.** 0.024

**Q.** And the “Avg. Activity” value ([3]; pH 5.89, Ala-pNA, ambient temperature)?
**A.** 13.9 mOD/min

**Q.** And the “Relative Activity” value ([3]; pH 5.89, Ala-pNA, relative to pH 9.68)?
**A.** 0.043

**Q.** What about the “Avg. Activity” value ([3]; pH 6.40, Ala-pNA, ambient temperature) of the same molecule?
**A.** 16.37 mOD/min

**Q.** And the “Relative Activity” value ([3]; pH 6.40, Ala-pNA, relative to pH 9.68)?
**A.** 0.051

**Q.** What about the “Avg. Activity” value ([3]; pH 6.90, Ala-pNA, ambient temperature) of the same molecule?
**A.** 23.48 mOD/min

**Q.** What about the “Relative Activity” value ([3]; pH 6.90, Ala-pNA, relative to pH 9.68) of the same molecule?
**A.** 0.0727

**Q.** What about the “Avg. Activity” value ([3]; pH 7.27, Ala-pNA, ambient temperature) of the same molecule?
**A.** 41.24 mOD/min

**Q.** What about the “Relative Activity” value ([3]; pH 7.27, Ala-pNA, relative to pH 9.68) of the same molecule?
**A.** 0.128

**Q.** What about the “Avg. Activity” value ([3]; pH 7.59, Ala-pNA, ambient temperature) of the same molecule?
**A.** 69.15 mOD/min

**Q.** What about the “Relative Activity” value ([3]; pH 7.59, Ala-pNA, relative to pH 9.68) of the same molecule?
**A.** 0.214

**Q.** And the “Avg. Activity” value ([3]; pH 8.03, Ala-pNA, ambient temperature)?
**A.** 145.6 mOD/min

**Q.** And the “Relative Activity” value ([3]; pH 8.03, Ala-pNA, relative to pH 9.68)?
**A.** 0.45

**Q.** What about the “Avg. Activity” value ([3]; pH 8.62, Ala-pNA, ambient temperature) of the same molecule?
**A.** 245.99 mOD/min

**Q.** What about the “Relative Activity” value ([3]; pH 8.62, Ala-pNA, relative to pH 9.68) of the same molecule?
**A.** 0.761

**Q.** And the “Avg. Activity” value ([3]; pH 9.25, Ala-pNA, ambient temperature)?
**A.** 306.97 mOD/min

**Q.** What about the “Relative Activity” value ([3]; pH 9.25, Ala-pNA, relative to pH 9.68) of the same molecule?
**A.** 0.95

**Q.** What about the “Relative Activity” value ([3]; pH 9.68, Ala-pNA (reference)) of the same molecule?
**A.** 1.0

**Q.** What about the “Avg. Activity” value ([3]; pH 9.68, Ala-pNA, ambient temperature) of the same molecule?
**A.** 323.15 mOD/min

**Q.** And the “Avg. Activity” value ([3]; pH 10.51, Ala-pNA, ambient temperature)?
**A.** 270.8 mOD/min

**Q.** And the “Relative Activity” value ([3]; pH 10.51, Ala-pNA, relative to pH 9.68)?
**A.** 0.838

**Q.** What about the “Avg. Activity” value ([3]; pH 10.95, Ala-pNA, ambient temperature) of the same molecule?
**A.** 197.86 mOD/min

**Q.** What about the “Relative Activity” value ([3]; pH 10.95, Ala-pNA, relative to pH 9.68) of the same molecule?
**A.** 0.612

**Q.** What about the “increase of absolute DH” value (sodium-caseinate; 1 LAPU aminopeptidase II added to 3 LAPUs FLAVOURZYME) of the same molecule?
**A.** 7%

**Q.** What about the “increase of absolute DH” value (sodium-caseinate; [7]) of the same molecule?
**A.** 9%
